This is an account of results in US20220089663A1, “PROTEINS AND FLUOROPHORE-CONTAINING COMPOUNDS SELECTIVE FOR NaV1.7” (MEMORIAL SLOAN KETTERING CANCER CENTER, priority 2019, published 2022).

A value given as a limit tells only on which side of the number the result lay.

Some targets named below: hNav1.2 (human) (UniProt Q99250); hNav1.5 (human) (UniProt Q14524); hNav1.7 (human) (UniProt Q15858); hNav1.3 (human) (UniProt Q9NY46); hNav1.1 (human) (UniProt P35498); hNav1.6 (human) (UniProt Q9UQD0); hNav1.4 (human) (UniProt P35499).
Holding throughout (test): cell-based or functional assay

synthetic Hsp1a (peptide): the fold selectivity of hNav1.7 over this channel in the assay with hNav1.2 (human) is 28 fold; with hNav1.5 (human), over 100 fold; in the assay with hNav1.3 (human), over 100 fold; in the assay with hNav1.1 (human) it was 40 fold; with hNav1.6 (human) it was over 100 fold; in the assay with hNav1.4 (human), over 100 fold. Besides, the pIC50, whole-cell patch clamp (QPatch 16X) in the assay with hNav1.2 (human) is 6.52 M; with hNav1.5 (human), under 6 M; with hNav1.7 (human), 7.98 M; in the assay with hNav1.3 (human), under 6 M; with hNav1.1 (human), 6.39 M; with hNav1.6 (human), under 6 M. This substance displayed a pIC50, whole-cell patch clamp (QPatch 16X) with hNav1.4 (human) of under 6 M. In addition, the recovery of currents after washout with hNav1.7 (human) was 10 min.

Turning to µ-theraphotoxin-Hsp1a (peptide), the IC50, automated whole-cell patch clamp in the assay with hNav1.7 (human) came out at 13 nM.
